# Reference: patent publication US20070071744A1 (published 2007)
# Ends that are not written are not given here.
# T1: peptide 10 (human)
# T1 peptide: Ac-PAQSGPLPKPSLQ
# T2: peptide 100 (human)
# T2 peptide: Ac-ELVVTGTSVTPSR
# T3: peptide 101 (human)
# T3 peptide: Ac-VVTGTSVTPSRLP
# T4: peptide 111 (human)
# T4 peptide: Ac-AEFSEATAELTVS
# T5: peptide 112 (human)
# T5 peptide: Ac-FSEATAELTVSFT
# T6: peptide 113 (human)
# T6 peptide: Ac-EATAELTVSFTNK
# T7: peptide 115 (human)
# T7 peptide: Ac-ELTVSFTNKVFTT
# T8: peptide 120 (human)
# T8 peptide: Ac-FTTETSRSITTSP
# T9: peptide 124 (human)
# T9 peptide: Ac-ITTSPKESDSPAG
# T10: peptide 126 (human)
# T10 peptide: Ac-PKESDSPAGPARQ
# T11: peptide 127 (human)
# T11 peptide: Ac-ESDSPAGPARQYY
# T12: peptide 129 (human)
# T12 peptide: Ac-PAGPARQYYTKGN
# T13: peptide 13 (human)
# T13 peptide: Ac-LPKPSLQALPSSL
# T14: peptide 14 (human)
# T14 peptide: Ac-KPSLQALPSSLVP
# T15: peptide 17 (human)
# T15 peptide: Ac-LPSSLVPLEKPVT
# T16: peptide 19 (human)
# T16 peptide: Ac-LVPLEKPVTLRCQ
# T17: peptide 22 (human)
# T17 peptide: Ac-PVTLRCQGPPGVD
# T18: peptide 23 (human)
# T18 peptide: Ac-TLRCQGPPGVDLY
# T19: peptide 24 (human)
# T19 peptide: Ac-RCQGPPGVDLYRL
# T20: peptide 3 (human, cysteine pairing not given here)
# T20 peptide: Ac-PTALFCLGLCLGR
# T21: peptide 30 (human)
# T21 peptide: Ac-LEKLSSSRYQDQA
# T22: peptide 31 (human)
# T22 peptide: Ac-KLSSSRYQDQAVL
# T23: peptide 35 (human)
# T23 peptide: Ac-DQAVLFIPAMKRS
# T24: peptide 39 (human)
# T24 peptide: Ac-AMKRSLAGRYRCS
# T25: peptide 4 (human, cysteine pairing not given here)
# T25 peptide: Ac-ALFCLGLCLGRVP
# T26: peptide 45 (human)
# T26 peptide: Ac-SYQNGSLWSLPSD
# T27: peptide 48 (human)
# T27 peptide: Ac-LWSLPSDQLELVA
# T28: peptide 5 (human, cysteine pairing not given here)
# T28 peptide: Ac-FCLGLCLGRVPAQ
# T29: peptide 52 (human)
# T29 peptide: Ac-LELVATGVFAKPS
# T30: peptide 55 (human)
# T30 peptide: Ac-GVFAKPSLSAQPG
# T31: peptide 6 (human)
# T31 peptide: Ac-LGLCLGRVPAQSG
# T32: peptide 68 (human)
# T32 peptide: Ac-QTRYGFDQFALYK
# T33: peptide 71 (human)
# T33 peptide: Ac-DQFALYKEGDPAP
# T34: peptide 72 (human)
# T34 peptide: Ac-FALYKEGDPAPYK
# T35: peptide 73 (human)
# T35 peptide: Ac-LYKEGDPAPYKNP
# T36: peptide 77 (human)
# T36 peptide: Ac-PYKNPERWYRASF
# T37: peptide 8 (human)
# T37 peptide: Ac-LGRVPAQSGPLPK
# T38: peptide 80 (human)
# T38 peptide: Ac-RWYRASFPIITVT
# T39: peptide 82 (human)
# T39 peptide: Ac-ASFPIITVTAAHS
# T40: peptide 90 (human)
# T40 peptide: Ac-RCYSFSSRDPYLW
# T41: peptide 92 (human)
# T41 peptide: Ac-FSSRDPYLWSAPS
# T42: peptide 95 (human)
# T42 peptide: Ac-YLWSAPSDPLELV
# How the values were obtained:
# Experiment in all cases: PepSpot peptide array
# [1] = target: T1, peptide 10
# Procedure: (§1) The peptides were synthesized on a cellulose membrane in a stepwise manner resulting in a defined arrangement (peptide array) and are covalently bound to the cellulose membrane. Binding assays were performed directly on the peptide array. In general an antigen peptide array is incubated with blocking buffer for several hours to reduce non-specific binding of proteins or antibodies. It follows the incubation with a primary (antigen peptide-binding) antibody in blocking buffer and an incubation with a horseradish peroxidase (HRP)-labelled secondary antibody, which binds selectively the primary antibody. Alternatively a HRP-labelled primary antibody in blocking buffer can be used.
# (§2) A short T(Tween)-TBS-buffer washing directly after the incubation of the antigen peptide array with the secondary protein or antibody or the HRP-labelled primary antibody followed by the first chemiluminescence experiment is made to get an first overview which antigen peptides do bind the primary antibody. Several buffer washing steps follow (T-TBS- and TBS-buffer) to reduce false positive binding (unspecific antibody binding to the cellulose membrane itself). After these washing steps the final chemiluminescence analysis is performed. The data were analysed with an imaging system showing the signal intensity (Light units, LU) as single measurements for each peptide. In order to evaluate non-specific binding of secondary antibodies, incubations using the secondary antibody have to be performed in the absence of the primary antibody as control incubation.
# [2] = target: T2, peptide 100
# Procedure: as §1, §2
# [3] = target: T3, peptide 101
# Procedure: as §1, §2
# [4] = target: T4, peptide 111
# Procedure: as §1, §2
# [5] = target: T5, peptide 112
# Procedure: as §1, §2
# [6] = target: T6, peptide 113
# Procedure: as §1, §2
# [7] = target: T7, peptide 115
# Procedure: as §1, §2
# [8] = target: T8, peptide 120
# Procedure: as §1, §2
# [9] = target: T9, peptide 124
# Procedure: as §1, §2
# [10] = target: T10, peptide 126
# Procedure: as §1, §2
# [11] = target: T11, peptide 127
# Procedure: as §1, §2
# [12] = target: T12, peptide 129
# Procedure: as §1, §2
# [13] = target: T13, peptide 13
# Procedure: as §1, §2
# [14] = target: T14, peptide 14
# Procedure: as §1, §2
# [15] = target: T15, peptide 17
# Procedure: as §1, §2
# [16] = target: T16, peptide 19
# Procedure: as §1, §2
# [17] = target: T17, peptide 22
# Procedure: as §1, §2
# [18] = target: T18, peptide 23
# Procedure: as §1, §2
# [19] = target: T19, peptide 24
# Procedure: as §1, §2
# [20] = target: T20, peptide 3
# Procedure: as §1, §2
# [21] = target: T21, peptide 30
# Procedure: as §1, §2
# [22] = target: T22, peptide 31
# Procedure: as §1, §2
# [23] = target: T23, peptide 35
# Procedure: as §1, §2
# [24] = target: T24, peptide 39
# Procedure: as §1, §2
# [25] = target: T25, peptide 4
# Procedure: as §1, §2
# [26] = target: T26, peptide 45
# Procedure: as §1, §2
# [27] = target: T27, peptide 48
# Procedure: as §1, §2
# [28] = target: T28, peptide 5
# Procedure: as §1, §2
# [29] = target: T29, peptide 52
# Procedure: as §1, §2
# [30] = target: T30, peptide 55
# Procedure: as §1, §2
# [31] = target: T31, peptide 6
# Procedure: as §1, §2
# [32] = target: T32, peptide 68
# Procedure: as §1, §2
# [33] = target: T33, peptide 71
# Procedure: as §1, §2
# [34] = target: T34, peptide 72
# Procedure: as §1, §2
# [35] = target: T35, peptide 73
# Procedure: as §1, §2
# [36] = target: T36, peptide 77
# Procedure: as §1, §2
# [37] = target: T37, peptide 8
# Procedure: as §1, §2
# [38] = target: T38, peptide 80
# Procedure: as §1, §2
# [39] = target: T39, peptide 82
# Procedure: as §1, §2
# [40] = target: T40, peptide 90
# Procedure: as §1, §2
# [41] = target: T41, peptide 92
# Procedure: as §1, §2
# [42] = target: T42, peptide 95
# Procedure: as §1, §2
binder,measurement,setting,value
"monoclonal antibody hGP 5C4 (antibody, V domains shown, Rat hybridoma antibody (Lou/C rats), heavy chain gamma 2a, light chain kappa; also called ab 5C4; anti-GPVI mAb 5C4) VH: EVKLQESGGGLVQPGRSLKLSCTASGFTFSDYFMSWVRQAPTRGLEWVASISSGGASAYWRDSVKGRFTISRDNAKSALYLQMDSLRSEDTATYFCARGELDFDYWGQGVMVAVSS VL: ADPNSTLLSASVGDRVTLNCTASQNVYKNLAWYQQKLGEAPRLLLYSANSQTGIPSRFSGSGSGPDFTLTISSLQPEDVASYFCQQYYSGNTFGAGTKLELKR",LU (Light Units),[1],1330 LU
same,LU (Light Units),[2],114 LU
same,LU (Light Units),[3],211 LU
same,LU (Light Units),[4],136 LU
same,LU (Light Units),[5],100 LU
same,LU (Light Units),[6],135 LU
same,LU (Light Units),[7],143 LU
same,LU (Light Units),[8],250 LU
same,LU (Light Units),[9],66 LU
same,LU (Light Units),[10],119 LU
same,LU (Light Units),[11],101 LU
same,LU (Light Units),[12],139 LU
same,LU (Light Units),[13],2050 LU
same,LU (Light Units),[14],1420 LU
same,LU (Light Units),[15],160 LU
same,LU (Light Units),[16],157 LU
same,LU (Light Units),[17],76 LU
same,LU (Light Units),[18],76 LU
same,LU (Light Units),[19],28 LU
same,LU (Light Units),[20],74 LU
same,LU (Light Units),[21],184 LU
same,LU (Light Units),[22],211 LU
same,LU (Light Units),[23],186 LU
same,LU (Light Units),[24],134 LU
same,LU (Light Units),[25],5 LU
same,LU (Light Units),[26],12 LU
same,LU (Light Units),[27],47 LU
same,LU (Light Units),[28],26 LU
same,LU (Light Units),[29],148 LU
same,LU (Light Units),[30],810 LU
same,LU (Light Units),[31],91 LU
same,LU (Light Units),[32],84 LU
same,LU (Light Units),[33],29 LU
same,LU (Light Units),[34],35 LU
same,LU (Light Units),[35],33 LU
same,LU (Light Units),[36],97 LU
same,LU (Light Units),[37],794 LU
same,LU (Light Units),[38],184 LU
same,LU (Light Units),[39],149 LU
same,LU (Light Units),[40],65 LU
same,LU (Light Units),[41],110 LU
same,LU (Light Units),[42],120 LU
